Data taken from patent US20240382610A1 (TALLAC THERAPEUTICS, published 2024).

B1: TNT-190 (antibody, mouse IgG2a, kappa)
heavy: EVQLVQSGGGLVKPGGSLRLSCAASGFTFSDYYMSWVRQAPGKGLEWVSAISGSGGSTYYADSVKGRFTISRDNSKNTLYLQMNSLRAEDTAVYYCARDEGYYYMDVWGKGTTVTVSSAKTTAPSVYPLAPVCGDTTGSSVTLGCLVKGYFPEPVTLTWNSGSLSSGVHTFPAVLQSDLYTLSSSVTVTSSTWPSQSITCNVAHPASSTKVDKKIEPRGPTIKPCPPCKCPAPNLLGGPSVFIFPPKIKDVLMISLSPIVTCVVVDVSEDDPDVQISWFVNNVEVHTAQTQTHREDYNSTLRVVSALPIQHQDWMSGKEFKCKVNNKDLPAPIERTISKPKGSVRAPQVYVLPPPEEEMTKKQVTLTCMVTDFMPEDIYVEWTNNGKTELNYKNTEPVLDSDGSYFMYSKLRVEKKNWVERNSYSCSVVHEGLHNHHTTKSFSRTPGRPQGFGPP
light: EIVLTQSPATLSLSPGERATLSCRASQSVSSYLAWYQQKPGQAPRLLIYDASNRATGIPARFSGSGSGTDFTLTISSLQAEDFATYYCQQSYSTRFGGGTKVEIKRADAAPTVSIFPPSSEQLTSGGASVVCFLNNFYPKDINVKWKIDGSERQNGVLNSWTDQDSKDSTYSMSSTLTLTKDEYERHNSYTCEATHKTSTSPIVKSFNRNEC
B2: TNT-191 (antibody, mouse IgG2a, kappa)
heavy: EVQLLESGGGVVQPGRSLRLSCAASGFTFSSYGMHWVRQAPGKGLEWVAVISYDGSNKYYADSVKGRFTISRDNSKNTLYLQMNSLRAEDTAVYYCAKSSYYDYVWGSYRYTDAFDIWGQGTMVTVSSAKTTAPSVYPLAPVCGDTTGSSVTLGCLVKGYFPEPVTLTWNSGSLSSGVHTFPAVLQSDLYTLSSSVTVTSSTWPSQSITCNVAHPASSTKVDKKIEPRGPTIKPCPPCKCPAPNLLGGPSVFIFPPKIKDVLMISLSPIVTCVVVDVSEDDPDVQISWFVNNVEVHTAQTQTHREDYNSTLRVVSALPIQHQDWMSGKEFKCKVNNKDLPAPIERTISKPKGSVRAPQVYVLPPPEEEMTKKQVTLTCMVTDFMPEDIYVEWTNNGKTELNYKNTEPVLDSDGSYFMYSKLRVEKKNWVERNSYSCSVVHEGLHNHHTTKSFSRTPGRPQGFGPP
light: EIVLTQSPATLSLSPGERATLSCRASQSVSSSYLAWYQQKPGQAPRLLIYGASSRATGIPDRFSGSGSGTDFTLTISRLEPEDFAVYYCQQYNNWWTFGQGTKVDIKRADAAPTVSIFPPSSEQLTSGGASVVCFLNNFYPKDINVKWKIDGSERQNGVLNSWTDQDSKDSTYSMSSTLTLTKDEYERHNSYTCEATHKTSTSPIVKSFNRNEC
B3: TNT-192 (antibody, mouse IgG2a, kappa)
heavy: EVQLLESGGGVVQPGRSLRLSCAASGFTFSSYGMHWVRQAPGKGLEWVAVISYDGSNKYYADSVKGRFTISRDNSKNTLYLQMNSLRAEDTAVYYCAKDYGYNWNFFDYWGQGTLVTVSSAKTTAPSVYPLAPVCGDTTGSSVTLGCLVKGYFPEPVTLTWNSGSLSSGVHTFPAVLQSDLYTLSSSVTVTSSTWPSQSITCNVAHPASSTKVDKKIEPRGPTIKPCPPCKCPAPNLLGGPSVFIFPPKIKDVLMISLSPIVTCVVVDVSEDDPDVQISWFVNNVEVHTAQTQTHREDYNSTLRVVSALPIQHQDWMSGKEFKCKVNNKDLPAPIERTISKPKGSVRAPQVYVLPPPEEEMTKKQVTLTCMVTDFMPEDIYVEWTNNGKTELNYKNTEPVLDSDGSYFMYSKLRVEKKNWVERNSYSCSVVHEGLHNHHTTKSFSRTPGRPQGFGPP
light: DIVMTQSPSSLSASVGDRVTITCRASQGISNYLAWYQQKPGKVPKLLIYAASTLQSGVPSRFSGSGSGTDFTLTISSLQPEDVATYYCQKYNSAPYTFGQGTKVEIKRADAAPTVSIFPPSSEQLTSGGASVVCFLNNFYPKDINVKWKIDGSERQNGVLNSWTDQDSKDSTYSMSSTLTLTKDEYERHNSYTCEATHKTSTSPIVKSFNRNEC

target: T1, Human nectin-4 ECD-6His (TNT-175) (human, UniProt Q96NY8 32-349); test: competition ELISA; nectin-4 ECD premixed with TNT202, captured by the coat antibody; % of signal without premix antibody
T1 construct: the entry holds the extracellular domain with the C-terminal 6His tag
T1 sequence: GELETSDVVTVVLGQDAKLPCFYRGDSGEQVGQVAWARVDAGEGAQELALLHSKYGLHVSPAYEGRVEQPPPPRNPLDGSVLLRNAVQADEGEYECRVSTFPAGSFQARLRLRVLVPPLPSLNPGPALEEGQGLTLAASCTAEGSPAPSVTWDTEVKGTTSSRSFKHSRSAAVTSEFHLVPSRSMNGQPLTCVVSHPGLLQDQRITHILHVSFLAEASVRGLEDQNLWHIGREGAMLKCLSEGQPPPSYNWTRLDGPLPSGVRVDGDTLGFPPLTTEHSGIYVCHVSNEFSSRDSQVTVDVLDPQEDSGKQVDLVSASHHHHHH
Description: (§1) Competition experiments of nectin-4 antibodies. ELISA plates were coated overnight at 4° C. with goat anti-mouse IgG at […] in PBS. […] As positive control, nectin-4 was diluted at same concentrations without a premix antibody. Two wells per plate were allocated for diluent only as negative/background control. Plates were washed as previously, 50 μL/well of premix was added to each plate and incubated for one hour. Plates were washed then incubated at room temperature for one hour with Rabbit anti 6× HIS HRP diluted 1:4,000 in diluent. Plates were washed once more and incubated at room temperature for 20 minutes with 50 μL/well of ABTS substrate. […] Binding was measured as an Optical Density (O.D.) value normalized to background and calculated as a percentage of positive control at the lowest nectin-4 dilution for greatest resolution.

Row | Binder | % of Positive
1 | B1 | 0.8%
2 | B2 | 4.8%
3 | B3 | 3.1%

target: T1, Human nectin-4 ECD-6His (TNT-175); test: competition ELISA; nectin-4 ECD premixed with TNT208, captured by the coat antibody; % of signal without premix antibody
Description: as §1

Row | Binder | % of Positive
4 | B1 | 0.3%
5 | B2 | 5.3%
6 | B3 | 2.3%

target: T2, human nectin-4 on cells (human, UniProt Q96NY8 32-510); test: flow cytometry MFI, MNK74 (nectin-4 positive) over AGS (negative)
T2 construct: whole, on cells; also called PVRL4
T2 sequence (looked up): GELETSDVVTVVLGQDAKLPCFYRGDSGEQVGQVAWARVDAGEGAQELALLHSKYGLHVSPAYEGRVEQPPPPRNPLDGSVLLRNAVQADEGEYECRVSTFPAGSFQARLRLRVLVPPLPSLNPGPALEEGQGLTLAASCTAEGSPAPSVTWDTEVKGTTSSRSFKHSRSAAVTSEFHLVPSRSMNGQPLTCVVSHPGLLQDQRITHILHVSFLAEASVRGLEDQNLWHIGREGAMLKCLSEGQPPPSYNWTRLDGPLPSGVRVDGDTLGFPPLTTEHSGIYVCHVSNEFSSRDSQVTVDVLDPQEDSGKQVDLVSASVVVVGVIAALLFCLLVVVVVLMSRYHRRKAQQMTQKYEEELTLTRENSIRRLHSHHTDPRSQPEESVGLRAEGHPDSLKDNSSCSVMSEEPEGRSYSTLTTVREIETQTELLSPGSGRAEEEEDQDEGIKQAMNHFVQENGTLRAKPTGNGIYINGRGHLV
Description: Cell binding of nectin-4 antibodies. Cell binding of the nectin-4 antibodies was also assessed. MNK74 (nectin-4 positive) and AGS (nectin-4 negative) cells were obtained from ATCC and cultured according to their protocols. Cells were detached with TrypLE (Gibco) and washed by centrifugation for five minutes at 400×g with FACS buffer (PBS+2% FBS). Cells were resuspended in FACS buffer, plated in 96-well format (0.25 e6/well) then pelleted by centrifugation for five minutes at 400×g. Cells were stained at 4° C. in Fixable Viability Dye eFluor 506 (eBioscience) diluted 1:4,000 in PBS. […] Cells were centrifuged, washed once in FACS buffer and stained at 4° C. with Goat F(ab′)₂ anti-Mouse IgG APC (Southern Biotech) diluted 1:400 in FACS buffer for 30 minutes or appropriate anti-human IgG. Cells were centrifuged, washed twice and fixed in 0.5% paraformaldehyde. Cells were analyzed on Attune NxT Flow Cytometer (Thermo Fisher), with subsequent data analysis by Flowjo 10.7 (BD). Dead cells were excluded by gating on the eFluor 506-negative population. […] Binding was assessed by median fluorescent intensity.

Row | Binder | Fold-change of binding to MNK74 compared to control AGS
7 | B1 | 5.1 fold
8 | B2 | 5 fold
9 | B3 | 4.5 fold

target: T1, Human nectin-4 ECD-6His (TNT-175); test: competition ELISA; nectin-4 ECD premixed with TNT205, captured by the coat antibody; % of signal without premix antibody
Description: as §1

Row | Binder | % of Positive
10 | B1 | 13.5%
11 | B2 | 54.8%
12 | B3 | 36.9%

target: T1, Human nectin-4 ECD-6His (TNT-175); test: competition ELISA; nectin-4 ECD premixed with TNT209, captured by the coat antibody; % of signal without premix antibody
Description: as §1

Row | Binder | % of Positive
13 | B1 | 3.4%
14 | B2 | 30.4%
15 | B3 | 20.5%

target: T1, Human nectin-4 ECD-6His (TNT-175); test: competition ELISA; nectin-4 ECD premixed with TNT207, captured by the coat antibody; % of signal without premix antibody
Description: as §1

Row | Binder | % of Positive
16 | B1 | 0.3%
17 | B2 | 2.5%
18 | B3 | 1.5%

target: T1, Human nectin-4 ECD-6His (TNT-175); test: competition ELISA; nectin-4 ECD premixed with TNT206, captured by the coat antibody; % of signal without premix antibody
Description: as §1

Row | Binder | % of Positive
19 | B1 | 0.5%
20 | B2 | 11.4%
21 | B3 | 6%

target: T1, Human nectin-4 ECD-6His (TNT-175); test: competition ELISA; nectin-4 ECD premixed with TNT201, captured by the coat antibody; % of signal without premix antibody
Description: as §1

Row | Binder | % of Positive
22 | B1 | 1.2%
23 | B2 | 1.5%
24 | B3 | 1.1%

target: T1, Human nectin-4 ECD-6His (TNT-175); test: SPR ProteOn, mAb on protein A
Description: Initial testing of binding of nectin-4 antibodies to nectin-4. […] Biotinylated protein A (15 μg/mL) was immobilized to the surface of an NLC chip. 30 nM of purified mAb supernatant was diluted in PBS-T and captured over the protein A surface. Serial dilutions of human nectin-4 were injected over the mAb-coated chips, and binding kinetics were determined. Chips were regenerated using 4:1 v/v of IgG elution butter/4M NaCl.

Row | Binder | Kd | koff | kon
25 | B1 | 31.4 nM | 0.00831 s⁻¹ | 265000 M⁻¹ s⁻¹
26 | B2 | 4.3 nM | 0.000983 s⁻¹ | 229000 M⁻¹ s⁻¹
27 | B3 | 9.14 nM | 0.00294 s⁻¹ | 322000 M⁻¹ s⁻¹

target: T1, Human nectin-4 ECD-6His (TNT-175); test: competition ELISA; nectin-4 ECD premixed with TNT211, captured by the coat antibody; % of signal without premix antibody
Description: as §1

Row | Binder | % of Positive
28 | B1 | 2.4%
29 | B2 | 24.6%
30 | B3 | 17.5%

target: T1, Human nectin-4 ECD-6His (TNT-175); test: competition ELISA; nectin-4 ECD premixed with TNT210, captured by the coat antibody; % of signal without premix antibody
Description: as §1

Row | Binder | % of Positive
31 | B1 | 0.3%
32 | B2 | 2.4%
33 | B3 | 1.1%

target: T1, Human nectin-4 ECD-6His (TNT-175); test: competition ELISA; nectin-4 ECD premixed with TNT212, captured by the coat antibody; % of signal without premix antibody
Description: as §1

Row | Binder | % of Positive
34 | B1 | 1.5%
35 | B2 | 3%
36 | B3 | 2.2%

target: T1, Human nectin-4 ECD-6His (TNT-175); test: competition ELISA; nectin-4 ECD premixed with TNT203, captured by the coat antibody; % of signal without premix antibody
Description: as §1

Row | Binder | % of Positive
37 | B1 | 3.5%
38 | B2 | 32.7%
39 | B3 | 23.3%

target: T1, Human nectin-4 ECD-6His (TNT-175); test: competition ELISA; nectin-4 ECD premixed with TNT204, captured by the coat antibody; % of signal without premix antibody
Description: as §1

Row | Binder | % of Positive
40 | B1 | 0.7%
41 | B2 | 4.5%
42 | B3 | 2.9%
